Results on nine molecules are retold here after article PMC3592467 (Nucleic Acids Research, 2012).

To fix the notation:
B1: CTNNBL1 (natural protein)
chain: MDVGELLSYQPNRGTKRPRDDEEEEQKMRRKQTGTRERGRYREEEMTVVEEADDDKKRLLQIIDRDGEEEEEEEEPLDESSVKKMILTFEKRSYKNQELRIKFPDNPEKFMESELDLNDIIQEMHVVATMPDLYHLLVELNAVQSLLGLLGHDNTDVSIAVVDLLQELTDIDTLHESEEGAEVLIDALVDGQVVALLVQNLERLDESVKEEADGVHNTLAIVENMAEFRPEMCTEGAQQGLLQWLLKRLKAKMPFDANKLYCSEVLAILLQDNDENRELLGELDGIDVLLQQLSVFKRHNPSTAEEQEMMENLFDSLCSCLMLSSNRERFLKGEGLQLMNLMLREKKISRSSALKVLDHAMIGPEGTDNCHKFVDILGLRTIFPLFMKSPRKIKKVGTTEKEHEEHVCSILASLLRNLRGQQRTRLLNKFTENDSEKVDRLMELHFKYLGAMQVADKKIEGEKHDMVRRGEIIDNDTEEEFYLRRLDAGLFVLQHICYIMAEICNANVPQIRQRVHQILNMRGSSIKIVRHIIKEYAENIGDGRSPEFRENEQKRILGLLENF
B2: PRP19 (natural protein)
chain: MSLICSISNEVPEHPCVSPVSNHVYERRLIEKYIAENGTDPINNQPLSEEQLIDIKVAHPIRPKPPSATSIPAILKALQDEWDAVMLHSFTLRQQLQTTRQELSHALYQHDAACRVIARLTKEVTAAREALATLKPQAGLIVPQAVPSSQPSVVGAGEPMDLGELVGMTPEIIQKLQDKATVLTTERKKRGKTVPEELVKPEELSKYRQVASHVGLHSASIPGILALDLCPSDTNKILTGGADKNVVVFDKSSEQILATLKGHTKKVTSVVFHPSQDLVFSASPDATIRIWSVPNASCVQVVRAHESAVTGLSLHATGDYLLSSSDDQYWAFSDIQTGRVLTKVTDETSGCSLTCAQFHPDGLIFGTGTMDSQIKIWDLKERTNVANFPGHSGPITSIAFSENGYYLATAADDSSVKLWDLRKLKNFKTLQLDNNFEVKSLIFDQSGTYLALGGTDVQIYICKQWTEILHFTEHSGLTTGVAFGHHAKFIASTGMDRSLKFYSL
B3: AD-002 (natural protein)
chain: MTTAARPTFEPARGGRGKGEGDLSQLSKQYSSRDLPSHTKIKYRQTTQDAPEEVRNRDFRRELEERERAAAREKNRDRPTREHTTSSSVSKKPRLDQIPAANLDADDPLTDEEDEDFEEESDDDDTAALLAELEKIKKERAEEQARKEQEQKAEEERIRMENILSGNPLLNLTGPSQPQANFKVKRRWDDDVVFKNCAKGVDDQKKDKRFVNDTLRSEFHKKFMEKYIK
B4: Spf27 (natural protein)
chain: MAGTGLVAGEVVVDALPYFDQGYEAPGVREAAAALVEEETRRYRPTKNYLSYLTAPDYSAFETDIMRNEFERLAARQPIELLSMKRYELPAPSSGQKNDITAWQECVNNSMAQLEHQAVRIENLELMSQHGCNAWKVYNENLVHMIEHAQKELQKLRKHIQDLNWQRKNMQLTAGSKLREMESNWVSLVSKNYEIERTIVQLENEIYQIKQQHGEANKENIRQDF
B5: PLRG1 (natural protein)
chain: MVEEVQKHSVHTLVFRSLKRTHDMFVADNGKPVPLDEESHKRKMAIKLRNEYGPVLHMPTSKENLKEKGPQNATDSYVHKQYPANQGQEVEYFVAGTHPYPPGPGVALTADTKIQRMPSESAAQSLAVALPLQTKADANRTAPSGSEYRHPGASDRPQPTAMNSIVMETGNTKNSALMAKKAPTMPKPQWHPPWKLYRVISGHLGWVRCIAVEPGNQWFVTGSADRTIKIWDLASGKLKLSLTGHISTVRGVIVSTRSPYLFSCGEDKQVKCWDLEYNKVIRHYHGHLSAVYGLDLHPTIDVLVTCSRDSTARIWDVRTKASVHTLSGHTNAVATVRCQAAEPQIITGSHDTTIRLWDLVAGKTRVTLTNHKKSVRAVVLHPRHYTFASGSPDNIKQWKFPDGSFIQNLSGHNAIINTLTVNSDGVLVSGADNGTMHLWDWRTGYNFQRVHAAVQPGSLDSESGIFACAFDQSESRLLTAEADKTIKVYREDDTATEETHPVSWKPEIIKRKRF
B6: Jarid2 (natural protein)
chain: MSKERPKRNIIQKKYDDSDGIPWSEERVVRKVLYLSLKEFKNSQKRQHAEGIAGSLKTVNGLLGNDQSKGLGPASEQSENEKDDASQVSSTSNDVSSSDFEEGPSRKRPRLQAQRKFAQSQPNSPSTTPVKIVEPLLPPPATQISDLSKRKPKTEDFLTFLCLRGSPALPNSMVYFGSSQDEEEVEEEDDETEDVKTATNNASSSCQSTPRKGKTHKHVHNGHVFNGSSRSTREKEPVQKHKSKEATPAKEKHSDHRADSRREQASANHPAAAPSTGSSAKGLAATHHHPPLHRSAQDLRKQVSKVNGVTRMSSLGAGVTSAKKMREVRPSPSKTVKYTATVTKGAVTYTKAKRELVKDTKPNHHKPSSAVNHTISGKTESSNAKTRKQVLSLGGASKSTGPAVNGLKVSGRLNPKSCTKEVGGRQLREGLQLREGLRNSKRRLEEAHQAEKPQSPPKKMKGAAGPAEGPGKKAPAERGLLNGHVKKEVPERSLERNRPKRATAGKSTPGRQAHGKADSASCENRSTSQPESVHKPQDSGKAEKGGGKAGWAAMDEIPVLRPSAKEFHDPLIYIESVRAQVEKFGMCRVIPPPDWRPECKLNDEMRFVTQIQHIHKLGRRWGPNVQRLACIKKHLKSQGITMDELPLIGGCELDLACFFRLINEMGGMQQVTDLKKWNKLADMLRIPRTAQDRLAKLQEAYCQYLLSYDSLSPEEHRRLEKEVLMEKEILEKRKGPLEGHTENDHHKFHPLPRFEPKNGLIHGVAPRNGFRSKLKEVGQAQLKTGRRRLFAQEKEVVKEEEEDKGVLNDFHKCIYKGRSVSLTTFYRTARNIMSMCFSKEPAPAEIEQEYWRLVEEKDCHVAVHCGKVDTNTHGSGFPVGKSEPFSRHGWNLTVLPNNTGSILRHLGAVPGVTIPWLNIGMVFSTSCWSRDQNHLPYIDYLHTGADCIWYCIPAEEENKLEDVVHTLLQANGTPGLQMLESNVMISPEVLCKEGIKVHRTVQQSGQFVVCFPGSFVSKVCCGYSVSETVHFATTQWTSMGFETAKEMKRRHIAKPFSMEKLLYQIAQAEAKKENGPTLSTISALLDELRDTELRQRRQLFEAGLHSSARYGSHDGSSTVADGKKKPRKWLQLETSERRCQICQHLCYLSMVVQENENVVFCLECALRHVEKQKSCRGLKLMYRYDEEQIISLVNQICGKVSGKNGSIENCLSKPTPKRGPRKRATVDVPPSRLSASSSSKSASSSS
B7: AEBP2 (natural protein)
chain: MAAAITDMADLEELSRLSPLPPGSPGSAARGRAEPPEEEEEEEEEEEEAEAEAVAALLLNGGSGGGGGGGGGGVGGGEAETMSEPSPESASQAGEDEDEEEDDEEEEDESSSSGGGEEESSAESLVGSSGGSSSDETRSLSPGAASSSSGDGDGKEGLEEPKGPRGSQGGGGGGSSSSSVVSSGGDEGYGTGGGGSSATSGGRRGSLEMSSDGEPLSRMDSEDSISSTIMDVDSTISSGRSTPAMMNGQGSTTSSSKNIAYNCCWDQCQACFNSSPDLADHIRSIHVDGQRGGVFVCLWKGCKVYNTPSTSQSWLQRHMLTHSGDKPFKCVVGGCNASFASQGGLARHVPTHFSQQNSSKVSSQPKAKEESPSKAGMNKRRKLKNKRRRSLPRPHDFFDAQTLDAIRHRAICFNLSAHIESLGKGHSVVFHSTVIAKRKEDSGKIKLLLHWMPEDILPDVWVNESERHQLKTKVVHLSKLPKDTALLLDPNIYRTMPQKRLKRTLIRKVFNLYLSKQ
B8: C17orf96 (natural protein)
chain: METLCPAPRLAVPASPRGSPCSPTPRKPCRGTQEFSPLCLRALAFCALAKPRASSLGPGPGELAARSPVLRGPQAPLRPGGWAPDGLKHLWAPTGRPGVPNTAAGEDADVAACPRRGEEEEGGGGFPHFGVRSCAPPGRCPAPPHPRESTTSFASAPPRPAPGLEPQRGPAASPPQEPSSRPPSPPAGLSTEPAGPGTAPRPFLPGQPAEVDGNPPPAAPEAPAASPSTASPAPAAPGDLRQEHFDRLIRRSKLWCYAKGFALDTPSLRRGPERPPAKGPARGAAKKRRLPAPPPRTAQPRRPAPTLPTTSTFSLLNCFPCPPALVVGEDGDLKPASSLRLQGDSKPPPAHPLWRWQMGGPAVPEPPGLKFWGINMDES
B9: C10orf12 (natural protein)
chain: MQRMIQQFAAEYTSKNSSTQDPSQPNSTKNQSLPKASPVTTSPTAATTQNPVLSKLLMADQDSPLDLTVRKSQSEPSEQDGVLDLSTKKSPCAGSTSLSHSPGCSSTQGNGENSTEAKAVDSNNQSKSPLEKFMVKLCTHHQKQFIRVLNDLYTESQPGTEDLQPSDSGAMDVSTCNAGCAQLSTKHKEKDALCLDMKSSASVDLFVDSSDSHSPLHLTEQTPKKPPPEINPVDGRENALTVVQKDSSELPTTKSNSINSSSVDSFTPGYLTASNCSSVNFHHIPKILEGQTTGQEQDTNVNICEDGKDHMQSSALVESLITVKMAAENSEEGNTCIIPQRNLFKALSEEAWNSGFMGNSSRTADKENTLQCPKTPLRQDLEANEQDARPKQENHLHSLGRNKVGYHLHPSDKGQFDHSKDGWLGPGPMPAVHKAANGHSRTKMISTSIKTARKSKRASGLRINDYDNQCDVVYISQPITECHFENQKSILSSRKTARKSTRGYFFNGDCCELPTVRTLARNLHSQEKASCSALASEAVFTPKQTLTIPAPRHTVDVQLPREDNPEEPSKEITSHEEGGGDVSPRKEPQEPEVCPTKIKPNLSSSPRSEETTASSLVWPLPAHLPEEDLPEGGSTVSAPTASGMSSPEHNQPPVALLDTEEMSVPQDCHLLPSTESFSGGVSEDVISRPHSPPEIVSREESPQCSENQSSPMGLEPPMSLGKAEDNQSISAEVESGDTQELNVDPLLKESSTFTDENPSETEESEAAGGIGKLEGEDGDVKCLSEKDTYDTSIDSLEENLDKKKKGKKFPEASDRCLRSQLSDSSSADRCLRNQSSDSSSACLEIKVPKNPSAKRSKKEGHPGGTTPKGLLPDSFHTETLEDTEKPSVNERPSEKDAEQEGEGGGIITRQTLKNMLDKEVKELRGEIFPSRDPITTAGQPLPGERLEIYVQSKMDEKNAHIPSESIACKRDPEQAKEEPGHIPTQHVEEAVNEVDNENTQQKDDESDAPCSSLGLSSSGSGDAARAPKSVPRPKRLTSSTYNLRHAHSLGSLDASKVTSEKEAAQVNPIMPKENGASESGDPLDEDDVDTVVDEQPKFMEWCAEEENQELIANFNAQYMKVQKGWIQLEKEGQPTPRARNKSDKLKEIWKSKKRSRKCRSSLESQKCSPVQMLFMTNFKLSNVCKWFLETTETRSLVIVKKLNTRLPGDVPPVKHPLQKYAPSSLYPSSLQAERLKKHLKKFPGATPAKNNWKMQKLWAKFRENPDQVEPEDGSDVSPGPNSEDSIEEVKEDRNSHPPANLPTPASTRILRKYSNIRGKLRAQQRLIKNEKMECPDALAVESKPSRKSVCINPLMSPKLALQVDADGFPVKPKSTEGMKGRKGKQVSEILPKAEVQSKRKRTEGSSPPDSKNKGPTVKASKEKHADGATKTPAAKRPAARDRSSQPPKKTSLKENKVKIPKKSAGKSCPPSRKEKENTNKRPSQSIASETLTKPAKQKGAGESSSRPQKATNRKQSSGKTRARPSTKTPESSAAQRKRKLKAKLDCSHSKRRRLDAK

The target in one assay is CDC5L–GFP (UniProt Q99459 1-802). In words: affinity purification with mass spectrometry.
Chain of CDC5L–GFP (Q99459 whole entry): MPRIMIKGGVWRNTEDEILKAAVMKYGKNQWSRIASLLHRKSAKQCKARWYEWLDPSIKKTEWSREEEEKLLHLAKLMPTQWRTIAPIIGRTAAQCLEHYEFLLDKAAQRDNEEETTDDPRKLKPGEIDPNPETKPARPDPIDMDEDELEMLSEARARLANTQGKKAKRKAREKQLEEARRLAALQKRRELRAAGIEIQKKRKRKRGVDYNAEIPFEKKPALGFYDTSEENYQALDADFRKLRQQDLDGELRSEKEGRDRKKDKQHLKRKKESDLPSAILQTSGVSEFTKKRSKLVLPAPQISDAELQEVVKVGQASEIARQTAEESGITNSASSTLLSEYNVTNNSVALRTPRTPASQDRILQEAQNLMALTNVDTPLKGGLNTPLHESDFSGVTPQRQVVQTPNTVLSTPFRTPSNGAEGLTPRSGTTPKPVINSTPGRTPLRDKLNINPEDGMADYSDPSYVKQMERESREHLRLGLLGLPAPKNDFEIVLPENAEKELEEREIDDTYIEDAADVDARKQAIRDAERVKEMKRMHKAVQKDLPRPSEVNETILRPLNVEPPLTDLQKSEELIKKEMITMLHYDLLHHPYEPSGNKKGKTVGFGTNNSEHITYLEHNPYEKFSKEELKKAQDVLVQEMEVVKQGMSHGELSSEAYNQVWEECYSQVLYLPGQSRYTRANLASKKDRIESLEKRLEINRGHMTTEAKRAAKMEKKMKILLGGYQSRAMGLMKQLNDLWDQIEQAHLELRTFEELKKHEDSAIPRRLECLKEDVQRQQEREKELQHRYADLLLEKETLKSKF
As to B1, the “stoichiometry N” value was 0.06 relative to CDC5L and the “stoichiometry with CDC5L as a dimer (CDC5L 2)” value (“stoichiometry with CDC5L” for short) was found to be 0.12 per CDC5L dimer.

Take B2: the “stoichiometry N” value was 2.08 relative to CDC5L and the “stoichiometry with CDC5L” value was 4.16 per CDC5L dimer.

For B3, the “stoichiometry N” value was 0.36 relative to CDC5L and the “stoichiometry with CDC5L” value was 0.72 per CDC5L dimer.

As to B4, the “stoichiometry N” value was 0.62 relative to CDC5L and the “stoichiometry with CDC5L” value was 1.24 per CDC5L dimer.

Consider B5, for which the “stoichiometry N” value was 0.37 relative to CDC5L and the “stoichiometry with CDC5L” value is 0.72 per CDC5L dimer.

A further assay deals with EED-GFP (UniProt O75530 1-441). As to the kind of experiment: affinity purification with mass spectrometry.
Chain of EED-GFP (O75530 whole entry): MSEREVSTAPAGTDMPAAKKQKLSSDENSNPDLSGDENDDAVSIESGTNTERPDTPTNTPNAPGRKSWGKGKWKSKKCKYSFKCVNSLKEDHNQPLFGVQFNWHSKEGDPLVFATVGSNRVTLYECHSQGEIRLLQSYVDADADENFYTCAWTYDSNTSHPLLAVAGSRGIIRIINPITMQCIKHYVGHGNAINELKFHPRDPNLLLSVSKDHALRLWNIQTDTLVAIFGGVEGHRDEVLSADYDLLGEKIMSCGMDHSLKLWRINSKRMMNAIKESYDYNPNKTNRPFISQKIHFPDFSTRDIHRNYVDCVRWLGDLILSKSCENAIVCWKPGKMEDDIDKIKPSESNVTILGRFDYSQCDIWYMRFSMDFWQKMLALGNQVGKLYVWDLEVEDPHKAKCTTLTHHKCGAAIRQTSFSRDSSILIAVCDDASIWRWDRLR
For the molecule B6, the “stoichiometry N” value is 0.12 relative to EED.

Take B7: the “stoichiometry N” value was 0.2 relative to EED.

Take B8: the “stoichiometry N” value was 0.47 relative to EED.

With B9, the “stoichiometry N” value is ~0.06 relative to the core subunits.
